From US20080050361A1, “STAP[…] […] ANTI-INFECTIVES” (priority 2004, published 2008)

Test: Heme binding by native and mutant forms of GST-IsdA (electronic spectra, A407/A280)
Details: GST-IsdA fusion proteins as expressed and isolated from E. coli; heme scavenged from E. coli cytoplasm; room temperature
Description: Wild type and point mutant proteins were purified as expressed from E. coli and relative heme binding was assessed based upon the ability of the proteins, all expressed in an equivalent fashion, to scavenge and retain association with heme derived from the cytoplasm of E. coli Proteins were adjusted to an equivalent concentration and electronic spectra were recorded using a Cary 500 spectrophotometer (Varian Inc.) with a 1 cm path length and 1 mL quartz cuvettes. All recordings were taken at room temperature.

B1: IsdA: full length (excluding signal peptide and C-terminal sorting sequences) IsdA, amino acids 48-316, GST fusion expressed in E. coli (protein, listed as Staphylococcus aureus)
chain: TEATNATNNQSTQVSQATSQPINFQVQKDGSSEKSHMDDYMQHPGKVIKQNNKYYFQTVLNNASFWKEYKFYNANNQELATTVVNDNKKADTRTINVAVEPGYKSLTTKVHIVVPQINYNHRYTTHLEFEKAIPTLADAAKPNNVKPVQPKPAQPKTPTEQTKPVQPKVEKVKPTVTTTSKVEDNHSTKVVSTDTTKDQTKTQTAHTVKTAQTAQEQNKVQTPVKDVATAKSESNNQAVSDNKSQQTNKVTKHNETPKQASKAKELPKT
modifications: GST fusion
- A407/A280 ratio: 0.629
